Measured values published in article PMC8673766 (Science Advances, 2021).

Target: T1, inhibin B (UniProt P05111 233-366; P09529 293-407)
T1 sequence (looked up) 1: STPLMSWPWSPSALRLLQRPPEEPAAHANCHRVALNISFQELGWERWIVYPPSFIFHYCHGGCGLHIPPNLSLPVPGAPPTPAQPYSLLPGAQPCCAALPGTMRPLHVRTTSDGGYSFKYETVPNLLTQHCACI
T1 sequence (looked up) 2: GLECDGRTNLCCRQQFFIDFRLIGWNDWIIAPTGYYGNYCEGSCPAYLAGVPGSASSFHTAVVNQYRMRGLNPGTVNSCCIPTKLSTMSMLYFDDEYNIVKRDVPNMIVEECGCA
Experiment: SPR

B1: murine TGFBR3L extracellular domain (R36-R211) (domain or fragment, UniProt D3YZZ2 36-211, looked up)
chain: RRPLFSLELSDAEDAFPRRAGPLEVPADSHVFVQAALARPSPRWGLALHRCSVTPSSRPTLGPALVLLRGGCPADDSVSFSPPPRPDAASVSRFSFRLRPVFNASVQFLHCQISRCRRRSSHHRRAVRLTPVPLTPPAPLRCLPQDEACAGSSLSLGTDSPHLHMLTQPIVVTIPR
With B1 the Kd was 52 nM.
